The record followed here is the RNAGym collection of RNA variant scans (doi:10.1093/nar/gkz1192).

B1: CPEB3 Ribozyme (parent)
chain: UAACAGGGGGCCACAGCAGAAGCGUUCACGUCGCAGCCCCUGUCAGAUUCUGGUGAAUCUGCGAAUUCUGCUGUAUAUCUC

In the data set the parent is B1. The experiment in a line: self-cleavage, relative activity (ratio to wild type); higher = more cleavage; in vitro, sequencing. Put shortly:
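After error-prone PCR and barcoding, CPEB3 ribozyme mutant libraries were transcribed with T7 RNA polymerase at 37°C for 5 hours, then given 15 min with DNase I before an EDTA stop, and they cleaved during both steps. Reverse transcription with template switching preceded Illumina sequencing. Relative activity divides a variant's cleaved/total read fraction by the unmutated ribozyme's. At least 5 reads were required per variant, and three batches were averaged.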
As for A13U A57U, the self-cleavage stood at 1.04.
With A13U A57G the figure was 1.07.
With A13U U51G the figure was 1.27.
As to A13U U51A, the self-cleavage was 1.21.
Next, A13U U51C: 0.94.
Next, C14U A64U: 0.61; C14U A64G: 1.17.
Next, A13G U69G: 0.39; A13G U69A: 0.38; A13G U69C: 0.32.
In the case of A13U C59A, the self-cleavage worked out at 0.58.
Next, A13U U66G: 0.81; A13U U66C: 0.48.
Next, A13U U66A: 0.52; A13G G52A: 1.04; A13G G52U: 1.14.
Next, C14U A15G: 1.13; C14U A15U: 1.07.
In the case of C14U A21G, the self-cleavage worked out at 0.78.
With A13G U48C the figure was 0.44.
With A13G U48A the figure was 0.31.
Next, C14G U49C: 0.33; A13U A35G: 1.3.
As to A13U A35U, the self-cleavage turned out to be 0.75.
Next, A13U A35C: 0.69.
With A13G U80C the figure was 1.03; with A13G U80G, 0.75; with A13G U80A, 1.07.
Next, A13U G42A: 0.19; A13U G42U: 0.12; A13G G55C: 0.23.
For A13G G55A, the self-cleavage was 0.79.
Next, A13U C44U: 0.23; A13U C44A: 0.29; C14A A57U: 1.14.
Next, A13U C14U: 1.26; C14A U72C: 1.22.
With A13G U74A the figure was 1.28; with A13G U74C, 0.72; with A13G U74G, 1.37.
On to A13G U66G, for which the self-cleavage is 0.31.
Next, A13G U66C: 0.35; A13G U66A: 0.45; A13U G63A: 1.05.
Consider A13U G63U, for which the self-cleavage was determined as 1.09.
With C14U C32G the figure was 0.1; with C14U C32A, 0.2; with A13U A47C, 0.76.
Next, A13U A47G: 1.01; A13U A47U: 0.92.
With A13U C17U the figure was 0.92.
Regarding A13U C17G, the self-cleavage turned out to be 0.48.
Next, A13G G22A: 0.19.
For A13G G22C, the self-cleavage worked out at 0.12.
With C14A A21U the figure was 0.34; with A13U A28G, 0.72; with A13U A28U, 1.01.
Next, A13U A28C: 0.64; A13G U60C: 0.38; A13G U60G: 0.32.
With A13G U60A the figure was 0.43.
Regarding C14A U67C, the self-cleavage is 0.14.
With C14G G53A the figure was 1.19; with C14A U74C, 1.23.
Next, C14A U74A: 1.25.
With C14A A15G the figure was 1.1; with A13U U26A, 1.08.
Turning to A13U U26C, the self-cleavage came out at 0.64.
With A13U U26G the figure was 0.4.
With A13U C29U the figure was 0.58.
With C14A A65G the figure was 0.78; with C14A A20G, 0.96; with A13G U26G, 0.21.
Take A13G U26C: the self-cleavage is 0.38.
Next, A13G U26A: 0.85; A13U C71A: 0.33; A13G G46A: 0.21.
Next, C14A G63A: 0.93; C14A G63U: 1.14.
With A13U A65C the figure was 0.17; with A13U A65G, 0.61.
As to C14G U54C, the self-cleavage was determined as 1.03.
Next, A13U C27A: 0.17; A13U C27U: 0.24; A13G C81A: 1.23.
Regarding C14U A56G, the self-cleavage was 1.23.
For C14U A56U, the self-cleavage stood at 0.5.
A13U A45U: the self-cleavage was 0.69.
Next, A13U A45G: 1.1.
Next, A13U A45C: 0.38; A13U A15U: 1.05.
Next, A13U A15C: 0.88; A13U A15G: 0.69.
Consider C14A U60C, for which the self-cleavage was 0.29.
With A13U U49A the figure was 0.71; with A13U U49C, 0.31.
Next, C14A C32U: 0.21; C14A C32A: 0.2; C14A G19A: 0.29.
Next, C14A U41C: 1.22; C14U A35G: 1.38; C14U A35C: 1.11.
Consider C14U A35U, for which the self-cleavage worked out at 1.04.
Next, A13U A75G: 1.25; A13U A75U: 1.28.
With C14U A20G the figure was 1.19.
With C14U A20U the figure was 0.4; with A13U G61A, 0.91; with C14U C29U, 0.72.
As to A13U G73A, the self-cleavage came to 1.23.
With A13U G73U the figure was 1.24; with A13U G73C, 1.26; with A13G U31A, 0.5.
Next, A13G U31G: 0.51; A13G U31C: 0.45; A13G G53A: 0.92.
With A13G G53U the figure was 1.15; with C14G A56G, 1; with A13U C62U, 0.22.
For the variant C14U A75G, the self-cleavage came out at 1.23.
With C14U A75U the figure was 1.23; with A13U U58G, 0.3; with A13U U58C, 0.72.
With A13U U58A the figure was 0.44; with C14A A45U, 0.77; with C14A A45G, 1.15.
Next, A13U A64C: 0.27.
With A13U A64G, the self-cleavage was determined as 1.09.
Next, A13U A64U: 0.47; A13G U67C: 0.25.
With A13G U67A the figure was 0.43.
With C14G G61A the figure was 0.42; with C14A U76C, 0.94; with C14G U25C, 0.17.
For C14A G53A, the self-cleavage turned out to be 1.38.
With A13G U49A the figure was 0.41; with A13G U49C, 0.25; with C14A U69C, 0.4.
Take C14A U69A: the self-cleavage came to 0.48.
With C14A C17G the figure was 0.44; with C14G C29A, 0.87.
Next, C14U A28U: 1.21.
With C14U A28G the figure was 0.76; with A13U C37U, 1.09; with A13U C50U, 0.89.
For A13U C50A, the self-cleavage is 0.98.
Next, C14U C40A: 0.24.
Next, A13G G30A: 0.44.
Next, A13G G30U: 0.18; A13G G30C: 0.16.
On to A13G U43A, for which the self-cleavage worked out at 0.93.
With A13G U43C the figure was 0.49; with A13G U43G, 0.27.
Next, C14G A35G: 1.24; C14U A77G: 1.34.
With C14U A77C the figure was 0.53.
On to C14A G42A, for which the self-cleavage amounted to 0.09.
On to A13G G63A, for which the self-cleavage is 0.68.
With A13G G63C the figure was 0.81; with C14G U74C, 0.89; with A13U G36A, 0.33.
Next, C14A U78C: 1.07; A13U U43G: 0.26.
With A13U U43A the figure was 1.09.
With A13U U43C, the self-cleavage worked out at 0.93.
On to A13U U74C, for which the self-cleavage came to 1.28.
With A13U U74A the figure was 1.23.
